Target: sodium Nav1.2 voltage-gated channel (expressed in Xenopus oocytes)
Test: cell-based or functional assay

Substance tethered µ-o-conotoxin MrVIA has a current flux through the channel, whole cell currents in Xenopus oocytes of 90%.
